Target: T1, CXADR protein on human prostate cancer cells (LNCaP-CR, DU-145) (human, UniProt P78310 20-365)
T1 construct: whole, on cells; Endogenous CXADR; also called coxsackievirus and adenovirus receptor; CAR
T1 sequence (looked up): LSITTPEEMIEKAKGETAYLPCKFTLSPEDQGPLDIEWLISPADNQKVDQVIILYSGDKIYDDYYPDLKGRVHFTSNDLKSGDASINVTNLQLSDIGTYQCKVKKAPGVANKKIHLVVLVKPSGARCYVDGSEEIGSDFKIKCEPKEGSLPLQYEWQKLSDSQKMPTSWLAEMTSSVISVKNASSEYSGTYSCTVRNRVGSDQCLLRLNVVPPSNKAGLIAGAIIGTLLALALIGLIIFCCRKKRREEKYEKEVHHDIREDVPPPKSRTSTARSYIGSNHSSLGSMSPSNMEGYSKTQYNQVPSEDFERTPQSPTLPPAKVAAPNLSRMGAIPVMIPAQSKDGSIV
Assay: flow cytometry, purified antibody at 5 ug/mL on LNCaP-CR and DU-145 cells that express CXADR

B1: anti-CXADR antibody 7F8A (antibody, V domains shown)
VH: DVQLQESGPGLVKPSQTVSLTCTVTGYSITNGNHWWNWIRQVSGSKLEWIGYINSSGSTDSNPSLKSRISITRDTSKNQLFLQLNSVTIEDIATYYCARDDYYFDYWGQGTTLTVSS
VL: DIQMTQSPASLSASVGETVTITCRASENIDSYLAWYQQKQGKSPQLLVYAATLLADGVPSRFSGSGSGTQYSLKINSLQSEDVARYYCQHYYSTPLTFGAGTKLELKR
notes: also called 7F8A clone
B1: binds.
